From patent publication US20260125446A1 (Eli Lilly, published 2026) come the findings set out here.

For assay [1], the target named is T1, rabbit serum albumin (rabbit, UniProt P49065 25-608).
T1 construct: Bought protein, immobilized on a CM5 chip by amine coupling; also called Rabbit SA
Description: SPR (Biacore 8K), albumin immobilized on CM5 chip, 25 C. The procedure:
(§1) The immobilization of the serum albumin to a Series S Sensor Chip CM5 surface is performed according to the manufacturer's instructions (Amine Coupling Kit BR-1000-50). Briefly, carboxyl groups on the sensor chip surfaces (flow cell 1 and 2) are activated by injecting 70 μL of a mixture containing 75 mg/mL EDC and 11.5 mg/mL NHS at 10 μL/min. Human, cynomolgus monkey, mouse, rat, pig, dog, cow and rabbit serum albumin are diluted in 10 mM sodium acetate pH 4.0 (BR-1003-49) at […] and then injected over the activated chip surfaces (flow cell 2, channel 1 to 8) at 10 μL/min for 180 sec (human, mouse, rat, pig and cow serum albumin are obtained from Sigma Aldrich (St. Louis, MO); cynomolgus monkey serum albumin is obtained from Hölzel Diagnostika (Cologne, Germany); dog serum albumin is obtained from Molecular Innovations (Novi, MI); and rabbit serum albumin is obtained from Fitzgerald Industries Intl. (Acton, MA). The various serum albumins are covalently immobilized through free amines onto a carboxymethyl dextran-coated sensor chip CM5 targeting a surface density of about 100 (62-145) RU. Excess reactive groups on the surfaces (flow cell 1 and 2) are deactivated by injecting 70 μL of 1 M ETA HCl—NaOH pH 8.5.
(§2) 150 μl of sample is individually injecting sequentially across the immobilized serum albumins on the chip's surface and dissociating for 600 sec at 50 μL/min flow rate at 25° C. The surface is regenerated by injecting 10 mM glycine-HCl pH 1.5 (BR-1003-54) at 50 μL/min for 100 sec. The resulting sensorgrams are analyzed using Biacore 8K Insight Evaluation Software (version 2.0.15.12933) 1:1 binding kinetics model fitting to calculate the binding kinetic parameter association rate (ka), dissociation rate (kd), and equilibrium dissociation constant (KD).

Assay [2] deals with T2, cow serum albumin (cow, UniProt P02769 25-607).
T2 construct: Bought protein, immobilized on a CM5 chip by amine coupling; also called Cow SA
Description: SPR (Biacore 8K), albumin immobilized on CM5 chip, 25 C, steady state. The procedure:
as §1
150 μl of sample is individually injecting sequentially across the immobilized serum albumins on the chip's surface and dissociating for 600 sec at 50 μL/min flow rate at 25° C. The surface is regenerated by injecting 10 mM glycine-HCl pH 1.5 (BR-1003-54) at 50 μL/min for 100 sec. The resulting sensorgrams are analyzed using Biacore 8K Insight Evaluation Software ([…]).
A general note: SPR reads the build-up and loss of mass on a sensor chip optically.

In assay [3] the target is T3, human serum albumin (human, UniProt P02768 25-609).
T3 construct: Bought protein, immobilized on a CM5 chip by amine coupling; also called Human SA
Description: SPR (Biacore 8K), albumin immobilized on CM5 chip, 25 C, 1:1 kinetic fit. As for the experimental part: as §1, §2

For assay [4], the target named is T4, cynomolgus monkey serum albumin (cynomolgus monkey, UniProt A2V9Z4 25-608).
T4 construct: Bought protein, immobilized on a CM5 chip by amine coupling; also called Cyno SA
The assay is described as above. The procedure:
as §1, §2

Assay [5] concerns the target T5, mouse serum albumin (mouse, UniProt P07724 25-608).
T5 construct: Bought protein, immobilized on a CM5 chip by amine coupling; also called Mouse SA
The description is as above. As for the experimental part:
as §1, §2

Assay [6] addresses T6, rat serum albumin (rat, UniProt P02770 25-608).
T6 construct: Bought protein, immobilized on a CM5 chip by amine coupling; also called Rat SA
Described as above. The procedure: as §1, §2

Assay [7] has as its target T7, pig serum albumin (pig, UniProt P08835 25-607).
T7 construct: Bought protein, immobilized on a CM5 chip by amine coupling; also called Pig SA
The description is as above. The procedure: as §1, §2

The target of assay [8] is T8, dog serum albumin (dog, UniProt P49822 25-608).
T8 construct: Bought protein, immobilized on a CM5 chip by amine coupling; also called Dog SA
The description is as above. As for the experimental part:
as §1, §2

The target of assay [9] is T2, cow serum albumin. The description is as above. The procedure: as §1, §2

B1: RLN Analog 14 (other)
chain: EVQLLESGGGLVQPGGSLRLSCAASGRYIDETAVAWFRQAPGKGREFVAGIGGGVDITYYADSVKGRFTISRDNSKNTLYLQMNSLRPEDTAVYYCAARPGRPLITSKVADLYPYWGQGTLVTVSSPGPQPGPQPGPQPGPQPGPQPGPQPGPQPGPQALANKCCHVGCTKRSLARFCGGGSGGSGGGSWMEEVIKLCGRELVRAQIAICGMSTWS
notes: Single-chain fusion: VHH - (PGPQ)8 L1 - RLN2 A chain (desA1-4) - L2 - RLN2 B chain (desB1)
Broadly, the Kd is the free concentration of one partner at which half of the binding sites on the other are occupied at equilibrium, for simple one-to-one binding. As a reminder, the koff is the first-order rate constant of dissociation. Broadly, the kon is the second-order rate constant of association. Turning to B1, the binding result in [1] is “no binding (tested: 1000 nM (highest concentration tested))”. The Kd in [2] was determined as 34 nM; in assay [3] it was 0.16 nM; in [4], 0.61 nM; in assay [5], 3.1 nM; in assay [6] it was 2.2 nM; in assay [7] it was 6 nM. In addition, in assay [8], the Kd worked out at 1.1 nM. For the same molecule, the koff is 0.00019 s⁻¹ in assay [3]; 0.00068 s⁻¹ in assay [4]; 0.0046 s⁻¹ in assay [5]; 0.0032 s⁻¹ in assay [6]; 0.0058 s⁻¹ in assay [7]; 0.0017 s⁻¹ in assay [8]. For the same molecule, the kon worked out at 1.2e+06 M⁻¹ s⁻¹ in [3]; 1.1e+06 M⁻¹ s⁻¹ in [4]; 1.5e+06 M⁻¹ s⁻¹ in assay [5]; 1.4e+06 M⁻¹ s⁻¹ in assay [6]; 970000 M⁻¹ s⁻¹ in assay [7]; 1.5e+06 M⁻¹ s⁻¹ in assay [8].

B2: RLN Analog 1 (other)
chain: EVQLLESGGGLVQPGGSLRLSCAASGRYIDETAVAWFRQAPGKEREFVAGIGGGVDITYYADSVKGRFTISRDNSKNTLYLQMNSLRPEDTAVYYCAARPGRPLITSKVADLYPYWGQGTLVTVSSGGGGQGGGGQGGGGQGGGGQGGGGQQLYSALANKCCHVGCTKRSLARFCGGGSGGSGGGSWMEEVIKLCGRELVRAQIAICGMSTWS
As for B2, the binding result in [1] is recorded as “no binding (tested: 1000 nM (highest concentration tested))”. The Kd was 0.11 nM in assay [3]; 0.5 nM in assay [4]; 3.3 nM in assay [5]; 2.1 nM in assay [6]; 7.1 nM in assay [7]; 1.2 nM in assay [8]. The affinity in assay [9], expressed as Kd, was 37 nM. Moreover, the koff in [3] was found to be 0.00011 s⁻¹; in assay [4], 0.00053 s⁻¹; in assay [5], 0.0042 s⁻¹; in [6], 0.0026 s⁻¹; in assay [7], 0.0055 s⁻¹; in [8], 0.0015 s⁻¹. Further, in [9], the koff came out at 0.05 s⁻¹. Also, the kon in assay [3] came out at 980000 M⁻¹ s⁻¹; in [4] it was 1.1e+06 M⁻¹ s⁻¹; in assay [5] it was 1.3e+06 M⁻¹ s⁻¹; in [6] it was 1.2e+06 M⁻¹ s⁻¹; in assay [7] it was 780000 M⁻¹ s⁻¹; in assay [8], 1.3e+06 M⁻¹ s⁻¹. Besides, in [9], the kon came to 1.4e+06 M⁻¹ s⁻¹.

B3: RLN Analog 2 (other)
chain: EVQLLESGGGLVQPGGSLRLSCAASGRYIDETAVAWFRQAPGKEREFVAGIGGGVDITYYADSVKGRFTISRDNSKNTLYLQMNSLRPEDTAVYYCAARPGRPLITSKVADLYPYWGQGTLVTVSSPGPAPGPAPGPAPGPAPGPAPGPAPGPAPGPAQLYSALANKCCHVGCTKRSLARFCGGGSGGSGGGSWMEEVIKLCGRELVRAQIAICGMSTWS
notes: Single-chain fusion: VHH - (PGPA)8 L1 - RLN2 A chain - L2 - RLN2 B chain (desB1)
Turning to B3, in [1], the binding result is given as “no binding (tested: 1000 nM (highest concentration tested))”. For the same molecule, the Kd turned out to be 0.1 nM in [3]; 0.45 nM in assay [4]; 3.8 nM in assay [5]; 3 nM in [6]; 8 nM in assay [7]; 1.4 nM in [8]. For the same molecule, binding in assay [9] was put at a Kd of 50 nM. Moreover, the koff in assay [3] amounted to 9.5e-05 s⁻¹; in assay [4], 0.00052 s⁻¹; in [5], 0.0042 s⁻¹; in [6] it was 0.0029 s⁻¹; in [7], 0.0056 s⁻¹; in assay [8] it was 0.0015 s⁻¹. Further, in assay [9], the koff is 0.049 s⁻¹. The kon in assay [3] was 920000 M⁻¹ s⁻¹; in assay [4], 1.2e+06 M⁻¹ s⁻¹; in assay [5] it was 1.1e+06 M⁻¹ s⁻¹; in assay [6], 980000 M⁻¹ s⁻¹; in assay [7], 690000 M⁻¹ s⁻¹; in assay [8], 1e+06 M⁻¹ s⁻¹. The kon in assay [9] worked out at 980000 M⁻¹ s⁻¹.
